Series [1] concerns the target Flag-TSC2 6A, P49815.
Series [2] has as its target Flag-TSC2, P49815.

From patent US20180147232 come the findings set out here.

Sequence of Flag-TSC2, P49815 (P49815 whole entry): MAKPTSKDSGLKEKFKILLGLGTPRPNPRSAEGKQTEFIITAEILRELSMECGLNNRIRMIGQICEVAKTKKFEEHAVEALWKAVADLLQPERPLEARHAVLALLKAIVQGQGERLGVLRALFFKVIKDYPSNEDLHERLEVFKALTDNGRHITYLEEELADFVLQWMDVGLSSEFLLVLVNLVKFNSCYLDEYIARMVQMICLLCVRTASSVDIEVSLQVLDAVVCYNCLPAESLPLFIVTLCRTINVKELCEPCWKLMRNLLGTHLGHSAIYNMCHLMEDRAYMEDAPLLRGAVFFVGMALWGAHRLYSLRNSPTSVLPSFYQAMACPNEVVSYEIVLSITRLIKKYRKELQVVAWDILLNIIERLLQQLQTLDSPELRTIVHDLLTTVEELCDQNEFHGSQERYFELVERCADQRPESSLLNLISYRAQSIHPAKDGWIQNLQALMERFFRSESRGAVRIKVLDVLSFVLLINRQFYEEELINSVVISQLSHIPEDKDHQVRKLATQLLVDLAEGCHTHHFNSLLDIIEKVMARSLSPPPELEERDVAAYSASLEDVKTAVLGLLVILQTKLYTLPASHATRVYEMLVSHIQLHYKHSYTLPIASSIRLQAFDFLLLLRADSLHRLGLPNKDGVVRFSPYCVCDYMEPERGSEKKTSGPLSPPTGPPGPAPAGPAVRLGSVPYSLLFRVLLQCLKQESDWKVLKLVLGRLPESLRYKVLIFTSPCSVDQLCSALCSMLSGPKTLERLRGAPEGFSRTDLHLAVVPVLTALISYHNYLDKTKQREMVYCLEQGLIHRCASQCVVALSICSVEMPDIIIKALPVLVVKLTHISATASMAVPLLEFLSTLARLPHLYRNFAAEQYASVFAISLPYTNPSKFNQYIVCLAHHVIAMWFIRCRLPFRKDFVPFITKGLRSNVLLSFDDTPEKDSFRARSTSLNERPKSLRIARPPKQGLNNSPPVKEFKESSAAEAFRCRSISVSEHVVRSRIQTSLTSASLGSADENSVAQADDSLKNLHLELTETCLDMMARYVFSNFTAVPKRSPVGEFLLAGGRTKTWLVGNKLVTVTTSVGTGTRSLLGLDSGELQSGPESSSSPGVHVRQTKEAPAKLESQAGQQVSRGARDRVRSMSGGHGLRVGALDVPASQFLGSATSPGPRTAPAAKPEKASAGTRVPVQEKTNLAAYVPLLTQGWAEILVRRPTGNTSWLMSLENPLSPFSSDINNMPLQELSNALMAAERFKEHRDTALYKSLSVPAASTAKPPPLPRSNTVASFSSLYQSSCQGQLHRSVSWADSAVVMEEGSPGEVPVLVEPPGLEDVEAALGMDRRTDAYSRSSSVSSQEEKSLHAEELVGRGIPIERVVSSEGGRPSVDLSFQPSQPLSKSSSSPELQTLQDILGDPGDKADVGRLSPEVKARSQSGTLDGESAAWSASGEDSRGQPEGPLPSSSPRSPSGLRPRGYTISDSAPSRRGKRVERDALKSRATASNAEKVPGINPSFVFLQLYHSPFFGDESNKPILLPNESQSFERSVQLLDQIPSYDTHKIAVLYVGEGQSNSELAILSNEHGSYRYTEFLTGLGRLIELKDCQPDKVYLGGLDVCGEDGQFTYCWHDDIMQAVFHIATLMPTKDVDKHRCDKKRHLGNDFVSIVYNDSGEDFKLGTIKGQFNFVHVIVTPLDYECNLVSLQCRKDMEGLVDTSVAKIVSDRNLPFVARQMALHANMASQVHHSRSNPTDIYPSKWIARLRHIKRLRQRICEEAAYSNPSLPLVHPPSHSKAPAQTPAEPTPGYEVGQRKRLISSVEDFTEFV
Sequence of Flag-TSC2 6A, P49815 (P49815 other isoform, or with tags, fused parts or gaps): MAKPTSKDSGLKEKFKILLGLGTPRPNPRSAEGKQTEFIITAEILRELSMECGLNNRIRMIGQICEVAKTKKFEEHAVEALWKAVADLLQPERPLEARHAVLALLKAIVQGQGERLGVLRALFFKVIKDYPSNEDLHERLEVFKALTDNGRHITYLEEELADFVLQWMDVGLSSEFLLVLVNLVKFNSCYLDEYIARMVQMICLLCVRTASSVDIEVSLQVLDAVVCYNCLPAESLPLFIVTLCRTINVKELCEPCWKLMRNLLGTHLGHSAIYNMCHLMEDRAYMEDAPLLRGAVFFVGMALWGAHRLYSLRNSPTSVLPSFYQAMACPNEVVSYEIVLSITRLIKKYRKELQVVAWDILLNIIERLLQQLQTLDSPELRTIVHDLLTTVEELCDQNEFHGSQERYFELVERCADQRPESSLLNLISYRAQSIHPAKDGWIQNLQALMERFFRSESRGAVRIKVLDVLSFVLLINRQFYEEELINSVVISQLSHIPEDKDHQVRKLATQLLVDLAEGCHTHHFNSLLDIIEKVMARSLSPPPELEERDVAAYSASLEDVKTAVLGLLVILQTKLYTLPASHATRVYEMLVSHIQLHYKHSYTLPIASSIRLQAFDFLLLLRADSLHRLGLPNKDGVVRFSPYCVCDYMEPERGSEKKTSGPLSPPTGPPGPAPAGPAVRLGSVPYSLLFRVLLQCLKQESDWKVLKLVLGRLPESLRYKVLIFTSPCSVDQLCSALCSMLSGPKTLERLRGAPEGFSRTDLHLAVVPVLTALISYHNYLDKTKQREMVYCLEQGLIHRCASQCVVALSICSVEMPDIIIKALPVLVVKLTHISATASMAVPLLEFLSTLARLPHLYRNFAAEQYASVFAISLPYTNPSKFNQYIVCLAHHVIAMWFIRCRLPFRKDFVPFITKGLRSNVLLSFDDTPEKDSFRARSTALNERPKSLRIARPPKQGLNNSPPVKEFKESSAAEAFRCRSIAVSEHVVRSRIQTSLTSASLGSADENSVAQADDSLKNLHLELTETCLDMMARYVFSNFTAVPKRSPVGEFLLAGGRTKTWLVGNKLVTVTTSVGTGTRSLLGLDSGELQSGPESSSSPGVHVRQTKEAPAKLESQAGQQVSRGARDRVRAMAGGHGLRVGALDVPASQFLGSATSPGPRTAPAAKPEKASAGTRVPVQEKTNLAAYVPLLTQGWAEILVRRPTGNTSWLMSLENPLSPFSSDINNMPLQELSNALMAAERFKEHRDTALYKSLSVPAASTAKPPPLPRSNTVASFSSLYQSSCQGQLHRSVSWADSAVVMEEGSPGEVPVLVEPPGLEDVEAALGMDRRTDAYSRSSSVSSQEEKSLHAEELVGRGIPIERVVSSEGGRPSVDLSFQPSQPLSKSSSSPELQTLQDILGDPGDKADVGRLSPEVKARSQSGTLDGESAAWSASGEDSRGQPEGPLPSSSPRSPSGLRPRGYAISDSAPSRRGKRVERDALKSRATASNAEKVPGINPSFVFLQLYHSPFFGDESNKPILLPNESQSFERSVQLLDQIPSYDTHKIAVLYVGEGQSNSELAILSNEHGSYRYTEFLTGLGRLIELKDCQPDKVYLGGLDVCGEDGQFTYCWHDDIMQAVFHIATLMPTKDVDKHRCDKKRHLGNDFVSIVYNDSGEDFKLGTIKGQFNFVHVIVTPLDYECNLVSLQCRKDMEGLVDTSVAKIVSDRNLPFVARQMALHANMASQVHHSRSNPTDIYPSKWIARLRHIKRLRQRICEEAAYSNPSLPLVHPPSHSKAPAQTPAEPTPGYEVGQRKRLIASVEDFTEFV

B1: recombinant His-SGK1 (Δ60) (protein)
chain: ISQPQEPELMNANPSPPPSPSQQINLGPSSNPHAKPSDFHFLKVIGKGSFGKVLLARHKAEEVFYAVKVLQKKAILKKKEEKHIMSERNVLLKNVKHPFLVGLHFSFQTADKLYFVLDYINGGELFYHLQRERCFLEPRARFYAAEIASALGYLHSLNIVYRDLKPENILLDSQGHIVLTDFGLCKENIEHNSTTSTFCGTPEYLAPEVLHKQPYDRTVDWWCLGAVLYEMLYGLPPFYSRNTAEMYDNILNKPLQLKPNITNSARHLLEGLLQKDRTKRLGAKDDFMEIKSHVFFSLINWDDLINKKITPPFNPNVSGPNDLRHFDPEFTEEPVPNSIGKSPDSVLVTASVKEAAEAFLGFDYAPPTDSFL
Consider B1, for which the “phosphorylation of TSC2, in vitro kinase assay” value in series [1] is recorded as “Mutation of these six sites into the non-phosphorylatable amino acid alanine (TSC2 6A) completely abrogated the ability of SGK1 to phosphorylate TSC2 in vitro”. Moreover, in series [2], the “phosphorylation of S939, S981, T993, S1130, S1132, T1462 and S1798 of TSC2 by mass spectrometry after the in vitro kinase assay” value was “we found increased phosphorylation in all these sites, except at T993”; the “phosphorylation of the RXRXX(S/T) sites of TSC2, in vitro kinase assay” value is recorded as “The addition of recombinant SGK1 kinase increased the phosphorylation of the RXRXX(S/T) (SEQ ID NO: 1) sites of TSC2 independent of the AKT activity”.
